Measurements: CN112159469A (SHANGHAI PUBLIC HEALTH CLINICAL CT, dated 2021)
Substitutions are numbered along the chain they refer to.

Biological target: SARS-CoV-2病毒的S1蛋白的RBD (SARS-CoV-2, UniProt P0DTC2 319-541)
Experiment: BLI (OctetRED96), antibody captured on AHC probe, RBD in solution from 100 nM in 3-fold dilutions, 1:1 global fit

B1: 单抗16L9 (antibody, V domains shown)
VH: EVQLVESGGGLIQPGGSLRLSCAASGFTVSSNYMSWVRQAPGKGLEWVSVIYSGGSTYYADSVKGRFTISRDNSENTLYLQMNSLRAEDTAVYYCARGEIQPYYYYGMDVWGQGTTVTVSS
VL: QSVLTQPPSASGSPGQSVTISCTGTSSDFGGYNSVSWYQQHPGKAPKLMIYEVSKRPSGVPDRFSGSKSGNTASLTVSGLQAEDEADYYCSSYAGSNNFDVFGTGTKVTVL
- Kd: 1.21 nM

B2: 单抗4L12 (antibody, V domains shown)
VH: EVQLVESGGGLVQPGGSLRLSCAASGITVSSNYMNWVRQAPGRGLEWVSLLYSGGSTYYADSVKGRFTISRDNSKNTLYLQMNSLRAEDTAVYYCARDLITYGMDVWGQGTTVTVSS
VL: AIQLTQSPSSLSASVGDRVTITCRASQGISSYLAWYQQKPGKAPKLLIYAASTLQSGVPSRFSGSGSGTDFTLTISSLQPEDFATYYCQQLNSYPPLTFGGGTKVEIK
- Kd: 1.49 nM

B3: 单抗12F5 (antibody, V domains shown)
VH: B2 VH with V12I, I27F, N35S, R43K, L50V, L51I, Y58F, T101D
VL: B2 VL with A1D, S10F, D70E, L97Y, G101Q, V105L
- Kd: 2.22 nM

B4: 单抗3D13 (antibody, V domains shown)
VH: EVQLVESGGGLIQPGGSLRLSCAASGLTVSSNYMSWVRQAPGKGLEWVSVIYSGGSAFYADSVKGRFTISRDNSKNTLYLQMNSLRAEDTAVYYCARDLSSAGGMDVWGQGTTVTVSS
VL: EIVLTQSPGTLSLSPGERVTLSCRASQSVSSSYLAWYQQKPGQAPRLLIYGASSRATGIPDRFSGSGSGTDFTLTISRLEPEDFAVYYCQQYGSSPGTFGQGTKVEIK
- Kd: 4.17 nM

B5: 单抗20E21 (antibody, V domains shown)
VH: B4 VH with I12F, W47C, A57T, F58Y, L99R, S100G, S101M, A102L, G103H
VL: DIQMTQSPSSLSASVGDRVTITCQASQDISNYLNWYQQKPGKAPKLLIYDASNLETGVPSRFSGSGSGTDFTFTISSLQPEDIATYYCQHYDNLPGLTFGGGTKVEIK
- Kd: 2.3 nM

B6: 单抗10C2 (antibody, V domains shown)
VH: EVQLVESGGGLIQPGGSLRLSCAASGLTVSSNYMNWVRQAPGKGLEWVSVIYSGGSTYYADSVKGRFTISRDNSKNTLYLQMNSLRAEDTAVYYCARLLVATIRDFDYWGQGTLVTVSS
VL: not shown
- Kd: 3.36 nM

B7: 单抗22H22 (antibody, V domains shown)
VH: B6 VH with G10A, N35T, L98G, L99Y, V100G, A101D, T102Y, I103E, R104N, D105Y
VL: AIQLTQSPSSLSASVGDRVTITCRASQGISSYLAWYQQKPGKAPKLLIYAASTLQGGVPSRFSGSGSGTDFTLTISSLQPEDFATYYCQHLWTFGQGTKVEIK
- Kd: 5.07 nM
